For one substance, stoichiometry N results are on record in paper PMC2527209.

The target of the assay is non-translating mammalian (canine) ribosome (canine). Briefly: co-sedimentation.

The stoichiometry N is a count of units in the complex or per binding partner.

Regarding “Sec61 complex (from UniProt P38377 1-476; P60467 1-96; P60058 1-68)”, the stoichiometry N was found to be 0.8.
